In patent publication US20080286228A1 (published 2008):
Non-standard residues stand in square brackets, D forms with d. No end group written: not given here.

B1: IPQSLDSWWTSLRRYSFKPMPLaRG (peptide)
peptide: IPQSLDSWWTSLRRYSFKPMPL[dA]RG
notes: synthetic peptide
B2: IPQSLDSWWTSLYSFKPMPLaR (peptide)
peptide: IPQSLDSWWTSLYSFKPMPL[dA]R
notes: synthetic peptide
B3: YSFKPMPLa[…] (peptide)
peptide: YSFKPMPL[dA]RRRIPQSLDSWWTSL
notes: synthetic peptide
B4: IPQSLDSWWTSLRVRRYSFKPMPLaR (peptide)
peptide: IPQSLDSWWTSLRVRRYSFKPMPL[dA]R
notes: synthetic peptide; also called RVRR-containing C5a-active construct
B5: natural C5a (ligand, UniProt P01031 678-751, looked up)
chain: TLQKKIEEIAAKYKHSVVKKCCYDGACVNNDETCEQRAARISLGPRCIKAFTECCVVASQLRANISHKDMQLGR
notes: C5a is a fragment of it
B6: IPQSLDSWWTSLRRYSFKPMPLaR (peptide)
peptide: IPQSLDSWWTSLRRYSFKPMPL[dA]R
notes: synthetic peptide; also called double-Arg-linked C5a-active construct
B7: C5a C-terminal decapeptide agonist analog YSFKPMPLaR (peptide)
peptide: YSFKPMPL[dA]R
notes: synthetic peptide; also called C5a agonist

Target: T1, C5a receptor expressed on the surface of human PMNs (human, UniProt P21730 1-350)
T1 sequence (looked up): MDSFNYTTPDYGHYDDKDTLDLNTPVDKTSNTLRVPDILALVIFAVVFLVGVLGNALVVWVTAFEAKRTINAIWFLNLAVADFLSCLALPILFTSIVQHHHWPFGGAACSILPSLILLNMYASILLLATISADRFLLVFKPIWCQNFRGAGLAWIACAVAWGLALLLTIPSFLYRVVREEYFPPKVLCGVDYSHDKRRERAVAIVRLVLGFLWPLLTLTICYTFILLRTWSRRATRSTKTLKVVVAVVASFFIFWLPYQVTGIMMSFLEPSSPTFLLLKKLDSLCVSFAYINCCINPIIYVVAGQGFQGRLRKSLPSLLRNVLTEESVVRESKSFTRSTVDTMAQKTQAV
Assay: cell-based or functional assay

Binder	MPO release from human PMNs, EC50 [µM]	MPO release from human PMNs, pD2
B1	2.56	5.59 -log EC50 (M)
B2	1.58	5.8 -log EC50 (M)
B3	> 1000	> 3 -log EC50 (M)
B4	2.15	5.61 -log EC50 (M)
B5	0.003	8.5 -log EC50 (M)
B6	0.54	6.27 -log EC50 (M)

Target: T1, C5a receptor expressed on the surface …
Assay: competition with 125I-C5a on intact human PMNs
Experimental: Statistical analysis of the values obtained from pharmacologic assays was performed using one-way analysis of variance (ANOVA).

Binder	pD2 (-log IC50 (M))	IC50 [µM]
B7	5.63 -log IC50 (M)	
B1	4.77 -log IC50 (M)	17
B2	5.43 -log IC50 (M)	3.69
B3	3.33 -log IC50 (M)	465
B4	6.28 -log IC50 (M)	0.529
B5	9.43 -log IC50 (M)	0.0004
B6	6.38 -log IC50 (M)	0.416

Target: T1, C5a receptor expressed on the surface …
Assay: cell-based or functional assay
Remark: another data set of the same source

Binder	smooth muscle contraction of human umbilical artery, EC50 [µM]	smooth muscle contraction of human umbilical artery, pD2
B7	0.01	6.99 -log EC50 (M)
B1	6.78	5.17 -log EC50 (M)
B2	0.21	6.68 -log EC50 (M)
B3	39.4	4.41 -log EC50 (M)
B4	0.18	6.67 -log EC50 (M)
B5	0.002	8.77 -log EC50 (M)
B6	0.161	6.79 -log EC50 (M)
